Biological target: KERP1 (lysine and glutamic acid rich protein 1), recombinant full-length protein (Entamoeba histolytica (strain HM1:IMSS))
Assay: AUC

KERP1 (lysine and glutamic acid rich protein 1), recombinant full-length protein (natural protein)
stoichiometry N: 3
